What all share (assay): SPR
Background: SPR reads the build-up and loss of mass on a sensor chip optically.

Experiment [1] addresses FcγRIIa-131R.
The target of experiment [2] is FcγRIIIa-158F.
Experiment [3] concerns the target FcγRIIIa-158V.
The target of experiment [4] is FcγRIIb.
For experiment [5], the target named is FcγRIIa-131H.
Experiment [6] has as its target T1, FcγRI (CD64) extracellular domain (UniProt P12314 16-292).
T1 chain: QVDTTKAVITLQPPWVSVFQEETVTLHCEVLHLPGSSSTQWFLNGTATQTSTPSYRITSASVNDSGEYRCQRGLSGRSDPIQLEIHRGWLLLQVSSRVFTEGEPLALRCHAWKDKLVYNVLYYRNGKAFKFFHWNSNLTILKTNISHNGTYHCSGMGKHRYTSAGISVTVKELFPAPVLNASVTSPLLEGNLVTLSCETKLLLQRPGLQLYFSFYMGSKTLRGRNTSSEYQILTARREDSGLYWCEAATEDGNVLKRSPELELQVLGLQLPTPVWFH

What is called Kd is the equilibrium constant for the complex coming apart. The low end stands for higher affinity, the high end for lower affinity.

B1: LY3454738 IgG4 S228P (ucenprubart) (antibody)
chain 1: QVQLVQSGAEVKKPGASVKVSCKASGFSFSSGYYMAWVRQAPGQGLEWMGLIGVGSGSLWYAQKFQGRVTMTRDTSTSTVYMELSSLRSEDTAVYYCARHFALSDPFNLWGQGTLVTVSS
chain 2: EIVLTQSPDFQSVTPKEKVTITCQASESIDSYLLWYQQKPDQSPKLLIKQASTLASGVPSRFSGSGSGTDFTLTINSLEAEDAATYYCQNYYDISSNDFGGGTKVEIK
Take B1: the Kd in experiment [1] was 1.8 µM; in experiment [2], > 10 µM; in experiment [3], 5 µM; in experiment [4] it was 1.9 µM; in experiment [5], 4.4 µM; in experiment [6], 0.000474 µM.
